The values below are quoted from earlier work in paper PMC3950513.

A word on the Kd: it is the free concentration of one partner at which half of the binding sites on the other are occupied at equilibrium, for simple one-to-one binding.

This data set concerns the target MukB (Escherichia coli) (UniProt P22523).
UniProt P22523, sequence (P22523 whole entry): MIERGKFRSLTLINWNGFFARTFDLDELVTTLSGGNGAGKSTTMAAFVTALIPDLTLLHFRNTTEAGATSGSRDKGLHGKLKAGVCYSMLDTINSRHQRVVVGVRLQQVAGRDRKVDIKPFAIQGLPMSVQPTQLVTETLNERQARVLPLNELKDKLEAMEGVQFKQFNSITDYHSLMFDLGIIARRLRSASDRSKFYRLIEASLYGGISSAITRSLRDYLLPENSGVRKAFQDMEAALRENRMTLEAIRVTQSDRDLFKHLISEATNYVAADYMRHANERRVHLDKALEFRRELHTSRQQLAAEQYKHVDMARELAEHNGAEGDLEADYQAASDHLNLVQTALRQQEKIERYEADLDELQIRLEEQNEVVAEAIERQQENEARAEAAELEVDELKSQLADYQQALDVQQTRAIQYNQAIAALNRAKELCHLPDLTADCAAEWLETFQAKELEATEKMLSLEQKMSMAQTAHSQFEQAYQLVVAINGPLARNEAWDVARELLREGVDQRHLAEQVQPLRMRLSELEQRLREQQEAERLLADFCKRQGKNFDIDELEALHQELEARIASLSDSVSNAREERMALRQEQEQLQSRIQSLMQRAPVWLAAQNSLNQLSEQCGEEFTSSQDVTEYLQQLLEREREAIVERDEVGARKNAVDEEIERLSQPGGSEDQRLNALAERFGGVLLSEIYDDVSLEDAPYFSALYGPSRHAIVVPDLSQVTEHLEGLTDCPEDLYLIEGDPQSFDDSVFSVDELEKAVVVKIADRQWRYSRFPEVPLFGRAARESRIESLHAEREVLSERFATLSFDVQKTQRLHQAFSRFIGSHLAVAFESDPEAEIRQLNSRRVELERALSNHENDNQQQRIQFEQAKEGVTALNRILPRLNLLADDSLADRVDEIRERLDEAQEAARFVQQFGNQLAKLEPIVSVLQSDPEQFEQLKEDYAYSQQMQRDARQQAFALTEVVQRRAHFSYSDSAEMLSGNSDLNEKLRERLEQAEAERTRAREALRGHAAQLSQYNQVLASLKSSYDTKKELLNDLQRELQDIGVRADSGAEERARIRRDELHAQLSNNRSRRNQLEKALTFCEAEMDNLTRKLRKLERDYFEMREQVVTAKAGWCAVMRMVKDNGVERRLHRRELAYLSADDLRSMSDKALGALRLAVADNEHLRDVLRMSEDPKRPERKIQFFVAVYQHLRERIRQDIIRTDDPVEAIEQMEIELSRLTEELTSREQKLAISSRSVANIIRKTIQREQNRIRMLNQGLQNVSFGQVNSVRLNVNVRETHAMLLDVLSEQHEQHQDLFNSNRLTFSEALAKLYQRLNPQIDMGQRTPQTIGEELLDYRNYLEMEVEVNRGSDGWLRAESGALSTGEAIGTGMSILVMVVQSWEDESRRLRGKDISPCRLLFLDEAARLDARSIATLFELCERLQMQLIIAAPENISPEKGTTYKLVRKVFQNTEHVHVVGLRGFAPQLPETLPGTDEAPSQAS

With ParC (from UniProt P0AFI2), the Kd is 500 nM.
